Experimental data reported in US8791061B2, “Peptides for treating and preventing immune-related disorders, including treating and preventing infection by modulating innate immunity” (Soligenix, Inc., priority 2005, dated 2014).
“Also recorded” adds a separate entry of the source. Where no end group is shown, it is not given here. [ ]: non-standard residue; d: D form. Orn = NCCC[C@H](N)C(=O)O

What was measured:
DPPIV = target: T1, DPPIV (Mus musculus, UniProt P28843); test: Plasma DPPIV activity assay with mouse blood; assay type: biochemical; settings: peptide 0.82 mM in mouse blood, 2 h at 37° C.; relative to saline control set to 100%
T1 construct: The plasma was transferred to a 96-well assay plate for the DPPIV assay; from tissue; host or cells: pooled heparinized whole blood of ICR mice; plasma isolated after incubation
T1 sequence (P28843 37-760 limits assumed): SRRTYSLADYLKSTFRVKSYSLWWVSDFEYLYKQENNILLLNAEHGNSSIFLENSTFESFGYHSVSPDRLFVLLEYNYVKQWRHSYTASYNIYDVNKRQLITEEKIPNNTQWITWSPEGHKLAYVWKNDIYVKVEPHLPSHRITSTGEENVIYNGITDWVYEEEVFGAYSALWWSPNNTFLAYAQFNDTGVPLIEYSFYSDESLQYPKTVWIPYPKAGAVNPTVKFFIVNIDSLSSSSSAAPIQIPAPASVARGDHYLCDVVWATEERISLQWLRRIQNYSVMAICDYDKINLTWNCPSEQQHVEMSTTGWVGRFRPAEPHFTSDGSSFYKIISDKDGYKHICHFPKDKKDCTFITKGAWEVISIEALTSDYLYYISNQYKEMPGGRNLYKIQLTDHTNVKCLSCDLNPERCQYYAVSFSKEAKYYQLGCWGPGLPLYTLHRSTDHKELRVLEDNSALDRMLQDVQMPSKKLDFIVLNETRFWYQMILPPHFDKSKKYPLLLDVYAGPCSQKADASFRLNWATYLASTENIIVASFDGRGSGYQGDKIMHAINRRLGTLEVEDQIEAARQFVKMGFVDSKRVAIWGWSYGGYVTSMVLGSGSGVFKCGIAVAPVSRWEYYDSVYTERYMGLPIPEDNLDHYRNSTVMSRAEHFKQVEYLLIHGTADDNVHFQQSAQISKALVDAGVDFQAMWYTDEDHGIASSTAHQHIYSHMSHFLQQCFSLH
Method: Mouse blood was obtained by cardiac puncture from ICR mice and collected in heparinized blood collection tubes. Blood from several mice was pooled and aliquoted into […]. The peptide was dissolved in acetate buffered saline, pH 5.5, to a concentration of 9 mM. Of this stock solution 30 μL were added to 300 μL of blood and mixed by resuspension (concentration in blood 0.82 mM). For the control, 30 μL of blank acetate buffered saline was added to 300 μL of blood. Each peptide group was prepared in triplicate, whereas the control was prepared in six replicates. The samples were incubated at 37° C. in closed microtubes for two hours. After incubation the plasma was isolated from the samples by centrifugation at 4000 rcf. The plasma was transferred to a 96-well assay plate for the DPPIV assay. The assay was started by adding 5 μL of the DPPIV substrate gly-pro-p-nitroanilide (16 mM in de-ionized water) to 95 μl of plasma (concentration in plasma 0.8 mM) and the increase in UV absorbance (405 nm) was monitored over a 20 min time period. The rate of the production of p-nitroaniline by enzymatic cleavage of gly-pro-p-nitroanilide was taken as the activity of DPPIV (Durinx C et al., (2001) “Reference values for plasma dipeptidyl-peptidase IV activity and their association with other laboratory parameters”. Clin Chem Lab Med. 39(2):155-9.)
The effect of the peptides on the activity of DPPIV was observed. Results are presented as normalized, averaged % activity relative to saline control (set to 100%). Anything less than 100% activity represents a reduction in DPPIV activity.
In one aspect of the invention, a reduction by of DPPIV activity by about, or in one embodiment, at least, 25% (i.e. to about 75%+/−5%) was deemed to be active. A person skilled in the art would appreciate that the desired level of activity may vary depending on the use of the peptides.

S. aureus 25923 [1] = test: Prophylactic in vivo protection, peptide before IP S. aureus infection of mice; settings: for protection (residual bacterial counts CFU/ml in intraperitoneal lavage fluid): mice, peptide IP 24 hours prior to infection, 12 mg/kg (SEQ 1), 11.5 mg/kg (SEQ 5), 24 hours post-infection; for mouse dead (peptide treatment): prophylactic peptide IP, control 2 mice dead
Method: Twenty-four hours prior to infection, peptide was administered at 12 mg/kg (SEQ. ID. NO. 1, FIG. 3A) and 11.5 mg/kg (SEQ. ID. No. 5, FIG. 3B), via IP injection. Mice were then infected with S. aureus 25923 via IP injection. Twenty-four hours post-infection, surviving animals were sacrificed and intraperitoneal lavage fluid was plated to determine residual bacterial counts (# colony forming units per ml (CFU/ml)) in the presence and absence of peptide treatment.
Dead animals were assigned the highest bacterial count of any animal in the study. The peptides of SEQ. ID.

S. aureus 25923 [2] = test: In vivo protection, mice infected IP with S. aureus, peptide after infection; settings: peptide IP 4 hours after infection, 9-24 mg/kg depending on peptide, 24 hours post-infection, vs control
Method: Mice were infected with S. aureus 25923 via intraperitoneal (IP) injection. Four hours later, the peptide of SEQ ID NOs:1, 4, 5, 6, 45, and 47 were administered at 12 mg/kg and 24 mg/kg for SEQ. ID. NO. 1 (FIGS. 2A and 2B), 9.6 mg/kg for SEQ. ID. NO. 5 (FIG. 2C), 13 mg/kg for SEQ. ID. NO. 47 (FIG. 2D), 12 mg/kg for SEQ. ID. NO. 4 (FIG. 2E), 9 mg/kg for SEQ. ID. NO. 6 (FIG. 2F), and 13 mg/kg for SEQ. ID. NO. 45 (FIG. 2G), via IP injection. Twenty-four hours post-infection, surviving animals were sacrificed, and intraperitoneal lavage fluid was plated to determine residual bacterial counts (# colony forming units per ml (CFU/ml)) in the presence and absence of peptide treatment.
Dead animals were assigned the highest bacterial count of any animal in the study.

S. aureus 25923 [3] = test: Non-antimicrobial activity, WST-1 colorimetric bacterial viability assay; assay type: cell-based; settings: peptide 200 μM, 2 hours growth, compared with erythromycin 120 μg/ml
Method: Bacteria (S. aureus 25923) were seeded into wells containing peptide (200 μM), vehicle (Tris), or antibiotic (erythromycin; 120 μg/ml). The bacteria were allowed to grow for 2 hours. Thereafter, bacterial viability was determined utilizing a WST-1 colorimetric viability assay (catalogue number 1 644 807; Roche Diagnostics). DMEM and DMEM+WST-1 were included as background controls.

Row | Substance | % DPPIV Activity (Saline) (DPPIV) | further results
1 | 65 (RIGPA-NH2) [compound 65] | 77% | 
2 | 72 (RIVPW-NH2) [compound 72] | 71% | 
3 | 1 (KSRIVP; IMMUNOLOGICAL PEPTIDE) [compound 1] | 76% | protection (residual bacterial counts CFU/ml in intraperitoneal lavage fluid) (S. aureus 25923 [1]): clearly demonstrated protection; mouse dead (peptide treatment) (S. aureus 25923 [1]): 0; protection (residual bacterial counts CFU/ml in intraperitoneal lavage fluid) (S. aureus 25923 [2]): clearly demonstrated protection; antimicrobial activity (bacterial viability) (S. aureus 25923 [3]): lacked antimicrobial activity
4 | 22 (RIVPG-NH2) [compound 22] | 61% | 
5 | 20 (GIVPA-NH2) [compound 20] | 73% | 
6 | 85 (Ser-Val-Pro-NH2) [compound 85] | 71% | 
7 | 18 (RIVPGGA-NH2) [compound 18] | 65% | 
8 | 90 (RIVPA[dY]-NH2) [compound 90] | 59% | 
9 | 51 (Arg-Val-Pro-NH2) [compound 51] | 70% | 
10 | 8 (RVPA; IMMUNOLOGICAL PEPTIDE) [compound 8] | 64% | 
11 | 24 (RIVPL-NH2) [compound 24] | 74% | 
12 | 81 (KVVPS-NH2) [compound 81] | 57% | 
13 | 73 (SPVIRH-NH2) [compound 73] | 66% | 
14 | 49 (IRVP-NH2) [compound 49] | 56% | 
15 | 88 (Gly-Val-Pro-NH2) [compound 88] | 69% | 
16 | 86 (Lys-Val-Pro-NH2) [compound 86] | 49% | 
17 | 74 (CPVIRH-NH2) [compound 74] | 45% | 

Row | Substance | % DPPIV Activity (Saline) (DPPIV) | further results
18 | 52 (PSVPGS-NH2) [compound 52] | 74% | 
19 | 30 (APVIR-NH2) [compound 30] | 36% | 
20 | 13 (RKVPA-NH2) [compound 13] | 50% | 
21 | 80 (KVIPS-NH2) [compound 80] | 30% | 
22 | 45 (KPARVPS; IMMUNOLOGICAL PEPTIDE) [compound 45] | 27% | protection (residual bacterial counts CFU/ml in intraperitoneal lavage fluid) (S. aureus 25923 [2]): clearly demonstrated protection
23 | 84 ([Orn]-Val-Pro-NH2; N-terminus assumed; SMILES CC(C)[C@H](NC(=O)[C@@H](N)CCCN)C(=O)N1CCC[C@H]1C(N)=O) [compound 84] | 79% | 
24 | 25 (RHVPA-NH2) [compound 25] | 38% | 
25 | 27 (RVIPA-NH2) [compound 27] | 67% | 
26 | 70 (RIHPA-NH2) [compound 70] | 37% | 
27 | 35 (RIVPF-NH2) [compound 35] | 77% | 
28 | 5 (RIVPA; IMMUNOLOGICAL PEPTIDE) [compound 5] | 66% | protection (residual bacterial counts CFU/ml in intraperitoneal lavage fluid) (S. aureus 25923 [1]): clearly demonstrated protection; mouse dead (peptide treatment) (S. aureus 25923 [1]): 0; protection (residual bacterial counts CFU/ml in intraperitoneal lavage fluid) (S. aureus 25923 [2]): clearly demonstrated protection; antimicrobial activity (bacterial viability) (S. aureus 25923 [3]): lack of activity; also recorded: lacked antimicrobial activity
29 | 26 (RIPVA-NH2) [compound 26] | −4% | 
30 | 3 (SRIVPA; IMMUNOLOGICAL PEPTIDE) [compound 3] | 60% | 
31 | 14 (RIVPK-NH2) [compound 14] | 67% | 
32 | 11 (RAVPA; IMMUNOLOGICAL PEPTIDE) [compound 11] | 39% | 
33 | 21 (RGVPA-NH2) [compound 21] | 64% | 
